The values below come from patent US20220193237A1 (Bristol-Myers Squibb, published 2022).

Residue numbers refer to the chain shown, from its start.

The labels stand for the following.
B1: ipi.88 Fab (Fab, V domains shown)
VH: QVQLVESGGGVVQPGRSLRLSCAASGFTFSHYTMHWVRQAPGKGLEWVTFISYDGHNKYYADSVKGRFTISRDNSKNTLYLQMNSLRAEDTAIYYCARHGWLGPFDYWGQGTLVTVSS
VL: not shown
notes: Tested as monovalent Fab
B2: ipi.93 Fab (Fab, V domains shown)
VH: B1 VH with H31S, H56N, H99T
VL: EIVLTQSPGTLSLSPGERATLSCRASQEVGDSELAWYQQKPGQAPRLLIYGAFSRATGIPDRFSGSGSGTDFTLTISRLEPEDFAVYYCQQYGSSPWTFGQGTKVEIKR
notes: Tested as monovalent Fab
B3: ipi.92 Fab (Fab, V domains shown)
VH: B1 VH
VL: B2 VL
notes: Tested as monovalent Fab
B4: ipi.71 Fab (Fab, V domains shown)
VH: B1 VH with H99T
VL: not shown
notes: Tested as monovalent Fab
B5: ipi.95 Fab (Fab, V domains shown)
VH: B1 VH with H99T
VL: B2 VL
notes: Tested as monovalent Fab
B6: ipi.94 Fab (Fab, V domains shown)
VH: B1 VH with H56N, H99T
VL: B2 VL
notes: Tested as monovalent Fab
B7: ipi.84 Fab (Fab, V domains shown)
VH: B1 VH
VL: not shown
notes: Tested as monovalent Fab
B8: ipi.7 Fab (Fab, V domains shown)
VH: B1 VH with H31S, T33H, H56N, N57H, H99T
VL: not shown
notes: Tested as monovalent Fab
B9: ipi.20 Fab (Fab, V domains shown)
VH: B1 VH with H31S, H56N, H99T
VL: not shown
notes: Tested as monovalent Fab
B10: ipi.69 Fab (Fab, V domains shown)
VH: B1 VH with H99T
VL: not shown
notes: Tested as monovalent Fab
B11: ipi.86 Fab (Fab, V domains shown)
VH: B1 VH with H56N
VL: not shown
notes: Tested as monovalent Fab
B12: ipi.66 Fab (Fab, V domains shown)
VH: B1 VH with H31S, H99T
VL: not shown
notes: Tested as monovalent Fab
B13: ipi.59 Fab (Fab, V domains shown)
VH: B1 VH with H31S, H99T
VL: not shown
notes: Tested as monovalent Fab
B14: ipi.82 Fab (Fab, V domains shown)
VH: B1 VH with H56N
VL: not shown
notes: Tested as monovalent Fab
B15: ipi.23 Fab (Fab, V domains shown)
VH: B1 VH with H31S, H56N, H99T
VL: not shown
notes: Tested as monovalent Fab
B16: ipi.24 Fab (Fab, V domains shown)
VH: B1 VH with H31S, H56N, H99T
VL: not shown
notes: Tested as monovalent Fab
B17: ipi.106, non-fucosylated IgG1 (antibody, V domains shown)
VH: B1 VH
VL: B2 VL with D31E
modifications: non-fucosylated N-linked glycan
notes: Non-fucosylated full-length human IgG1; also called Ipi.106 IgG1-NF

The first test deals with T1, monomeric human CTLA-4 (human, UniProt P16410 36-161, limits assumed).
T1 construct: Soluble monomeric analyte in SPR; also called huCTLA-4
T1 sequence: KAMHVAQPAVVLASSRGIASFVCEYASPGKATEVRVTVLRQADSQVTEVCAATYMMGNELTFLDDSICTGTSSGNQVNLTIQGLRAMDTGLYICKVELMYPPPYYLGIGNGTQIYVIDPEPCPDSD
Description: SPR, captured Fab, pH 7.4. How it is done:
(§1) Binding of selected variants to human CTLA-4 was determined essentially as described in Example 3. […] Nomenclature and sequences for these antibodies is provided at Tables 6 and 7, and in the sequence listing as summarized at Table 8.
(§2) Monomeric human CTLA-4 was flowed as analyte with up to 2 μM top concentration. Between cycles, the capture surface was regenerated with 75 mM phosphoric acid. Experiments were run on a BIACORE® T200 instrument at 37° C. Running buffers were HEPES buffered saline for pH 7.4 experiments and Bis-Tris buffered saline for lower pH experiments. […] Double referenced sensorgrams were fitted to a 1:1 Langmuir binding model with mass transport to determine equilibrium dissociation constants (KD), as well as association (kₐ) and dissociation (kd) rate constants where appropriate.
In general, Kd refers to the concentration at which binding is half-saturated. On to B1, for which the Kd was 170 nM. In other words, the sub-micromolar range.
In turn, B2 yielded a dissociation constant (Kd) of 210 nM.
Still for that read-out and setting: under B3 stands > 1000 nM.
What is called kon is a measure of how fast the partners come together. With B4, the dissociation constant Kd is 39 nM, the association rate constant (kon) is 740000 M⁻¹ s⁻¹ and the “t1/2” value turned out to be 24 s.
As for B5, the affinity, expressed as Kd, was 280 nM. This counts as sub-micromolar.
Same read-out and setting: the value for B6 was 270 nM; that for B7 was 120 nM.
In the case of B8, the Kd is 1.5 nM, the kon came to 1e+06 M⁻¹ s⁻¹ and the “t1/2” value was found to be 462 s.
On the same counts, the results for B9 are 84 nM, 790000 M⁻¹ s⁻¹ and 11 s.
On the same counts, the results for B10 are 28 nM, 820000 M⁻¹ s⁻¹ and 30 s.
B11 gave a Kd of 180 nM.
With B12, the equilibrium dissociation constant (Kd) worked out at 26 nM, the kon was determined as 700000 M⁻¹ s⁻¹ and the “t1/2” value is 36 s.
The corresponding values for B13 are 21 nM, 810000 M⁻¹ s⁻¹ and 41 s.
For the molecule B14, the equilibrium dissociation constant (Kd) came to 130 nM.

Another test deals with T1, monomeric human CTLA-4. Description: SPR, captured Fab, pH 6.0 vs 7.4, second experiment. The protocol:
(§3) See Example 3. Antibodies were tested as monovalent Fab fragments to simplify analysis.
as §2
(In general: SPR reads the build-up and loss of mass on a sensor chip optically.)
As to B15, the “KD 7.4/6 (APBP)” value is 4.1, the “ka 6/7.4” value came to 2 and the “kd 7.4/6” value was determined as 2.1.
The corresponding values for B16 are 3.3, 2 and 1.7.

Another test addresses T1, monomeric human CTLA-4. As to the kind of experiment: SPR, captured Fab, pH 6.0, second experiment. The protocol:
as §3, §2
Broadly, the koff is the rate constant with which the complex falls apart. High values mean fast dissociation, low ones slow dissociation. As to B15, the Kd was determined as 6.5 nM, the dissociation rate constant (koff) worked out at 0.0062 s⁻¹ and the on-rate constant (kon) turned out to be 960000 M⁻¹ s⁻¹.
The corresponding values for B16 are 7.2 nM, 0.006 s⁻¹ and 830000 M⁻¹ s⁻¹.

Another test deals with T2, human CTLA-4 on 58 α-β-CTLA-4/CD3 ζ cells (human; mouse (mCD3ζ)).
T2 construct: also called 58αβ-hCTLA4/mCD3ζ cells; 58αβ-CTLA4/mCD3ζ cells
As to the kind of experiment: flow cytometry, non-fucosylated IgG1 on 58αβ-CTLA4/mCD3ζ cells, pH 7.2. The protocol:
(§4) Antibodies were titrated from 100 μg/mL at a 1:4 dilution across 12 points in pH-specific buffers and incubated for 30-60 minutes. Buffers contained HBSS, 2% FBS^HI, 0.02% sodium azide, 2 mM EDTA, and sodium phosphate buffer (pH 5.4). Sodium phosphate buffer was added until desired pH was reached (7.2, 6.7, 6.2). Approximately 3e5 cells/well were tested for each cell line. […] Detection was done with a monovalent anti-hKappa secondary nanobody conjugated to Alexa647 and used at a dilution of 1:2000. Cells were fixed with BD Fix Solution I for 30 minutes prior to resuspension in pH-specific buffers and reading on the cytometer (BD Fortessa).
In general terms: In flow cytometry, cells or beads pass a laser one at a time.
Broadly, the EC50 is the concentration that produces a half-maximal response. A low value points to an effect from little substance. For the molecule B17, the “Cmax (MFI)” value stood at 62000 MFI and a half-maximal response (EC50) required 11.5 nM.

The target in another test is T2, human CTLA-4 on 58 α-β-CTLA-4/CD3 ζ …. Description: flow cytometry, non-fucosylated IgG1 on 58αβ-CTLA4/mCD3ζ cells, pH 6.7. How it is done:
as §4
For the molecule B17, the “Cmax (MFI)” value was 80200 MFI and a half-maximal effect (EC50) was put at 4.37 nM.

For a further test, the target named is T1, monomeric human CTLA-4. As to the kind of experiment: SPR, captured Fab, pH 7.4, second experiment. The protocol: as §3, §2
B15 displayed a dissociation constant Kd of 27 nM, a dissociation rate constant (koff) of 0.013 s⁻¹ and an on-rate (kon) of 490000 M⁻¹ s⁻¹.
In turn, B16 returned a Kd of 24 nM, a koff of 0.0099 s⁻¹ and a kon of 420000 M⁻¹ s⁻¹.

Another test concerns the target T1, monomeric human CTLA-4. As to the kind of experiment: SPR, captured Fab, pH 6.0 vs 7.4. The protocol:
as §1, §2
For B1, the “KD 7.4/6 (APBP)” value was found to be 27.
B2: the “KD 7.4/6 (APBP)” value worked out at 16.
The same measure, in the same setting: the value for B3 was > 59.
On to B4, for which the “KD 7.4/6 (APBP)” value came out at 25, the “ka 6/7.4” value stood at 2 and the “t1/2 6/7.4” value turned out to be 12.2.
For B5, the “KD 7.4/6 (APBP)” value worked out at 99.
On the same count and under the same terms, under B6 stands 52.
Still for that read-out and setting: under B7 stands 7.7.
Regarding B8, the “KD 7.4/6 (APBP)” value worked out at 0.8, the “ka 6/7.4” value came to 1.1 and the “t1/2 6/7.4” value came out at 0.7.
On the same counts, the results for B9 are 2.6, 2 and 1.3.
The corresponding values for B10 are 6.3, 1.3 and 4.7.
For the molecule B11, the “KD 7.4/6 (APBP)” value came out at 15.
B12: the “KD 7.4/6 (APBP)” value came out at 7.6, the “ka 6/7.4” value came out at 1.8 and the “t1/2 6/7.4” value was found to be 4.3.
On the same counts, the results for B13 are 1.9, 1.3 and 1.5.
As to B14, the “KD 7.4/6 (APBP)” value stood at 4.4.

The next test concerns the target T1, monomeric human CTLA-4. Description: SPR, captured Fab, pH 6.0. How it is done:
as §1, §2
As for B1, the Kd was 6.5 nM, the kon was found to be 2e+06 M⁻¹ s⁻¹ and the “t1/2” value was found to be 53 s.
In the case of B2, the affinity, expressed as Kd, was 13 nM; the on-rate (kon) came out at 1.7e+06 M⁻¹ s⁻¹; the “t1/2” value worked out at 32 s.
The corresponding values for B3 are 17 nM, 1.8e+06 M⁻¹ s⁻¹ and 22 s.
The corresponding values for B4 are 1.6 nM, 1.5e+06 M⁻¹ s⁻¹ and 289 s.
With B5, the equilibrium dissociation constant (Kd) came to 2.8 nM, the on-rate (kon) was determined as 1.9e+06 M⁻¹ s⁻¹ and the “t1/2” value turned out to be 126 s.
The corresponding values for B6 are 5.2 nM, 1.9e+06 M⁻¹ s⁻¹ and 70 s.
On the same counts, the results for B7 are 16 nM, 1.3e+06 M⁻¹ s⁻¹ and 35 s.
Regarding B8, the affinity, expressed as Kd, was 1.7 nM; the kon was determined as 1.2e+06 M⁻¹ s⁻¹; the “t1/2” value is 347 s.
The corresponding values for B9 are 32 nM, 1.6e+06 M⁻¹ s⁻¹ and 14 s.
For B10, the dissociation constant (Kd) worked out at 4.4 nM, the on-rate (kon) is 1.1e+06 M⁻¹ s⁻¹ and the “t1/2” value amounted to 144 s.
The corresponding values for B11 are 12 nM, 1.6e+06 M⁻¹ s⁻¹ and 36 s.
As for B12, the dissociation constant (Kd) was found to be 3.5 nM, the kon worked out at 1.2e+06 M⁻¹ s⁻¹ and the “t1/2” value was determined as 161 s.
For B13, the Kd stood at 11 nM, the kon is 1e+06 M⁻¹ s⁻¹ and the “t1/2” value is 63 s.
The corresponding values for B14 are 31 nM, 1.4e+06 M⁻¹ s⁻¹ and 16 s.

The next test has as its target T1, monomeric human CTLA-4. As to the kind of experiment: SPR, captured Fab, second experiment of Table 3. How it is done:
as §3, §2
On to B15, for which the “ratio of KD (7.4/6.0) normalized to the ratio of ipilimumab” value amounted to 5.1.
Same read-out and setting: under B16 stands 4.1.

In another test the target is T2, human CTLA-4 on 58 α-β-CTLA-4/CD3 ζ …. Description: flow cytometry, non-fucosylated IgG1 on 58αβ-CTLA4/mCD3ζ cells, pH 6.2. How it is done:
as §4
For B17, the “Cmax (MFI)” value came out at 88000 MFI and the EC50 amounted to 3.15 nM.
